{"source": "paper PMC10108200", "about": "“Reaction Pathways for the Enzymatic Degradation of Poly(Ethylene Terephthalate): What Characterizes an Efficient PET‐Hydrolase?” (Chembiochem, 2022)", "assay_in_all_cases": "initial rates by RP-HPLC, Michaelis-Menten fit", "key": {"[1]": {"substrate": "O=C(OCCO)c1ccc(C(=O)OCCO)cc1", "type": "biochemical, unidentified prokaryotic organism", "conditions": "50 °C, 10 min, 0-2 mM substrate, 0.01-0.5 μM enzyme", "source_text": "(§1) initial rates by RP-HPLC, Michaelis-Menten fit on LCC"}, "[2]": {"substrate": "O=C(O)c1ccc(C(=O)OCCO)cc1", "type": "biochemical, unidentified prokaryotic organism", "conditions": "50 °C, 2 h, 0-2 mM substrate, 0.01-0.5 μM enzyme", "source_text": "as §1"}, "[3]": {"substrate": "O=C(O)c1ccc(C(=O)OCCOC(=O)c2ccc(C(=O)OCCO)cc2)cc1", "type": "biochemical, unidentified prokaryotic organism", "conditions": "50 °C, 10 min, 0-2 mM substrate, 0.01-0.5 μM enzyme", "source_text": "as §1"}, "[4]": {"substrate": "O=C(O)c1ccc(C(=O)OCCOC(=O)c2ccc(C(=O)OCCOC(=O)c3ccc(C(=O)O)cc3)cc2)cc1", "type": "biochemical, unidentified prokaryotic organism", "conditions": "50 °C, 10 min, 0-2 mM substrate, 0.01-0.5 μM enzyme", "source_text": "as §1"}, "[5]": {"substrate": "O=C(O)c1ccc(C(=O)OCCOC(=O)c2ccc(C(=O)OCCO)cc2)cc1", "type": "biochemical, Mycothermus thermophilus", "conditions": "50 °C, 10 min, 0-2 mM substrate, 0.01-0.5 μM enzyme", "source_text": "(§2) initial rates by RP-HPLC, Michaelis-Menten fit on HiC"}, "[6]": {"substrate": "O=C(O)c1ccc(C(=O)OCCOC(=O)c2ccc(C(=O)OCCOC(=O)c3ccc(C(=O)O)cc3)cc2)cc1", "type": "biochemical, Mycothermus thermophilus", "conditions": "50 °C, 10 min, 0-2 mM substrate, 0.01-0.5 μM enzyme", "source_text": "as §2"}, "[7]": {"substrate": "O=C(OCCO)c1ccc(C(=O)OCCO)cc1", "type": "biochemical, Thermobifida fusca", "conditions": "50 °C, 10 min, 0-2 mM substrate, 0.01-0.5 μM enzyme", "source_text": "(§3) initial rates by RP-HPLC, Michaelis-Menten fit on TfC"}, "[8]": {"substrate": "O=C(O)c1ccc(C(=O)OCCO)cc1", "type": "biochemical, Thermobifida fusca", "conditions": "50 °C, 2 h, 0-2 mM substrate, 0.01-0.5 μM enzyme", "source_text": "as §3"}, "[9]": {"substrate": "O=C(O)c1ccc(C(=O)OCCOC(=O)c2ccc(C(=O)OCCO)cc2)cc1", "type": "biochemical, Thermobifida fusca", "conditions": "50 °C, 10 min, 0-2 mM substrate, 0.01-0.5 μM enzyme", "source_text": "as §3"}, "[10]": {"substrate": "O=C(O)c1ccc(C(=O)OCCOC(=O)c2ccc(C(=O)OCCOC(=O)c3ccc(C(=O)O)cc3)cc2)cc1", "type": "biochemical, Thermobifida fusca", "conditions": "50 °C, 10 min, 0-2 mM substrate, 0.01-0.5 μM enzyme", "source_text": "as §3"}}}
{"protein": "LCC (unidentified prokaryotic organism) (protein, heterologously expressed and purified) QSNPYQRGPNPTRSALTADGPFSVATYTVSRLSVSGFGGGVIYYPTGTSLTFGGIAMSPGYTADASSLAWLGRRLASHGFVVLVINTNSRFDYPDSRASQLSAALNYLRTSSPSAVRARLDANRLAVAGHSMGGGGTLRIAEQNPSLKAAVPLTPWHTDKTFNTSVPVLIVGAEADTVAPVSQHAIPFYQNLPSTTPKVYVELDNASHFAPNSNNAAISVYTISWMKLWVDNDTRYRQFLCNVNDPALSDFRTNNRHCQ", "values": [{"measurement": "Km", "setting": "[1]", "value": "960 ± 160", "unit": "µM"}, {"measurement": "kcat", "setting": "[1]", "value": "6.2 ± 0.62", "unit": "s⁻¹"}, {"measurement": "Km", "setting": "[2]", "value": "1200 ± 130", "unit": "µM"}, {"measurement": "kcat", "setting": "[2]", "value": "0.048 ± 0.0033", "unit": "s⁻¹"}, {"measurement": "Km", "setting": "[3]", "value": "120 ± 35", "unit": "µM"}, {"measurement": "kcat", "setting": "[3]", "value": "21 ± 1.7", "unit": "s⁻¹"}, {"measurement": "Km", "setting": "[4]", "value": "790 ± 410", "unit": "µM"}, {"measurement": "kcat", "setting": "[4]", "value": "300 ± 122", "unit": "s⁻¹"}]}
{"protein": "HiC (Mycothermus thermophilus) (protein) QLGAIENGLESGSANACPDAILIFARGSTEPGNMGITVGPALANGLESHIRNIWIQGVGGPYDAALATNFLPRGTSQANIDEGKRLFALANQKCPNTPVVAGGYSQGAALIAAAVSELSGAVKEQVKGVALFGYTQNLQNRGGIPNYPRERTKVFCNVGDAVCTGTLIITPAHLSYTIEARGEAARFLRDRIRA", "values": [{"measurement": "Km", "setting": "[5]", "value": "77 ± 9.1", "unit": "µM"}, {"measurement": "kcat", "setting": "[5]", "value": "2.9 ± 0.098", "unit": "s⁻¹"}, {"measurement": "Km", "setting": "[6]", "value": "89 ± 21", "unit": "µM"}, {"measurement": "kcat", "setting": "[6]", "value": "24 ± 2.9", "unit": "s⁻¹"}]}
{"protein": "TfC (Thermobifida fusca YX) (protein) ANPYERGPNPTDALLEASSGPFSVSEENVSRLSASGFGGGTIYYPRENNTYGAVAISPGYTGTEASIAWLGERIASHGFVVITIDTITTLDQPDSRAEQLNAALNHMINRASSTVRSRIDSSRLAVMGHSMGGGGTLRLASQRPDLKAAIPLTPWHLNKNWSSVTVPTLIIGADLDTIAPVATHAKPFYNSLPSSISKAYLELDGATHFAPNIPNKIIGKYSVAWLKRFVDNDTRYTQFLCPGPRDGLFGEVEEYRSTCPF", "values": [{"measurement": "Km", "setting": "[7]", "value": "230 ± 67", "unit": "µM"}, {"measurement": "kcat", "setting": "[7]", "value": "1.1 ± 0.12", "unit": "s⁻¹"}, {"measurement": "Km", "setting": "[8]", "value": "3800 ± 91", "unit": "µM"}, {"measurement": "Km", "setting": "[9]", "value": "170 ± 16", "unit": "µM"}, {"measurement": "kcat", "setting": "[9]", "value": "11 ± 0.35", "unit": "s⁻¹"}, {"measurement": "Km", "setting": "[10]", "value": "170 ± 38", "unit": "µM"}, {"measurement": "kcat", "setting": "[10]", "value": "62 ± 7.3", "unit": "s⁻¹"}]}
